Data as given in the supplement of paper PMC5998384.

Key:
[1] = test system: HeLa Kyoto; experiment: thermal stability score vs G1/S (z-score of summed log2 fold changes over temperatures); higher = more thermally stable than in G1/S
[2] = test system: HeLa Kyoto; experiment: solubility in G1/S (NP-40 vs SDS abundance) (log2 ratio); higher = more soluble; details: cell cycle stage: G1/S
[3] = test system: HeLa Kyoto; experiment: melting temperature (median over replicates), in situ; higher = more thermally stable
[4] = test system: HeLa Kyoto; experiment: solubility change mitosis vs G1/S (difference of NP-40 vs SDS log2 ratios) (log2 ratio difference); higher = more soluble in mitosis
[5] = cell cycle stage: early G1 (4.5 h after nocodazole release)
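Throughout, for melting temperature (median over replicates), in situ: HeLa Kyoto cells synchronized by double thymidine or nocodazole block, proteins quantified by TMT10plex mass spectrometry, three independent biological replicates.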
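Throughout, for solubility change mitosis vs G1/S (difference of NP-40 vs SDS log2 ratios): synchronized HeLa Kyoto cells (double thymidine block for G1/S, nocodazole release for mitosis), protein amounts in NP-40 versus SDS lysates quantified by mass spectrometry, three biological replicates.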
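Throughout, for solubility in G1/S (NP-40 vs SDS abundance): HeLa Kyoto cells arrested at G1/S by double thymidine block, proteins quantified by TMT10plex mass spectrometry in mild NP-40 versus SDS extracts, three biological replicates.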
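Throughout, for thermal stability score vs G1/S (z-score of summed log2 fold changes over temperatures): synchronized HeLa Kyoto cells, proteins quantified by TMT10plex mass spectrometry, three biological replicates, mitosis taken 0.5 h after nocodazole release, G1/S directly after double thymidine block.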

Chain of CHAC2 (chain, as listed by the source): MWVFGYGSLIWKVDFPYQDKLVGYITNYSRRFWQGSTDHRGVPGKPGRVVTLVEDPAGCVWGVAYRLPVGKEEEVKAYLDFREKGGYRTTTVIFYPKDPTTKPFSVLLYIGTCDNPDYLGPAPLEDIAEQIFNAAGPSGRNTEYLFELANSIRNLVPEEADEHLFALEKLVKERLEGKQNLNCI

Substance | thermal stability score [1, 5] | thermal stability score ([1]; cell cycle stage: mitosis) | solubility in G1/S (log2) [2] | melting temperature ([3]; cell cycle stage: G1/S) [°C] | melting temperature ([3]; cell cycle stage: mitosis) [°C] | solubility change mitosis (log2) [4]
MAEGERQPPPDSSEEAPPATQNFIIPKKEIHTVPDMGKWKRSQAYADYIGFILTLNEGVKGKKLTFEYRVSEMWNEVHEEKEQAAKQSVSCDECIPLPRAGHCAPSEAIEKLVALLNTLDRWIDETPPVDQPSRFGNKAYRTWYAKLDEEAENLVATVVPTHLAAAVPEVAVYLKESVGNSTRIDYGTGHEAAFAAFLCCLCKIGVLRVDDQIAIVFKVFNRYLEVMRKLQKTYRMEPAGSQGVWGLDDFQFLPFIWGSSQLIDHPYLEPRHFVDEKAVNENHKDYMFLECILFITEMKTGPFAEHSNQLWNISAVPSWSKVNQGLIRMYKAECLEKFPVIQHFKFGSLLPIHPVTSG [PPP2R4] | 2.14 | 2.26 | 0.247 | 53.8 | 53.8 | -0.119
MSCESSMVLGYWDIRGLAHAIRLLLEFTDTSYEEKRYTCGEAPDYDRSQWLDVKFKLDLDFPNLPYLLDGKNKITQSNAILRYIARKHNMCGETEEEKIRVDIIENQVMDFRTQLIRLCYSSDHEKLKPQYLEELPGQLKQFSMFLGKFSWFAGEKLTFVDFLTYDILDQNRIFDPKCLDEFPNLKAFMCRFEALEKIAAYLQSDQFCKMPINNKMAQWGNKPVC [GSTM3] | 1.24 | 3.37 | 0.0979 | 47.9 | 48.3 | -0.117
MSDDAGDTLATGDKAEVTEMPNSDSLPEDAEVHCDSAAVSHEPTPADPRGEGHENAAVQGAGAAAIGPPVQPQDANALEPPLNGDVTEDTLAECIDSVSLEAEPRSEIPLQEQNYLAVDSPPSGGGWAGWGSWGKSLLSSASATVGHGLTAVKEKAGATLRIHGVNSGSSEGAQPNTENGVPEITDAATDQGPAESPPTSPSSASRGMLSAITNVVQNTGKSVLTGGLDALEFIGKKTMNVLAESDPGFKRTKTLMERTVSLSQMLREAKEKEKQRLAQQLTMERTAHYGMLFDEYQGLSHLEALEILSNESESKVQSFLASLDGEKLELLKNDLISIKDIFAAKELENEENQEEQGLEEKGEEFARMLTELLFELHVAATPDKLNKAMKRAHDWVEEDQTVVSVDVAKVSEEETKKEEKEEKSQDPQEDKKEEKKTKTIEEVYMSSIESLAEVTARCIEQLHKVAELILHGQEEEKPAQDQAKVLIKLTTAMCNEVASLSKKFTNSLTTVGSNKKAEVLNPMISSVLLEGCNSTTYIQDAFQLLLPVLQVSHIQTSCLKAQP [FAM114A1] | 0.444 | 0.327 | 0.474 | 52.9 | 53.1 | -0.158
MAGAAAESGRELWTFAGSRDPSAPRLAYGYGPGSLRELRAREFSRLAGTVYLDHAGATLFSQSQLESFTSDLMENTYGNPHSQNISSKLTHDTVEQVRYRILAHFHTTAEDYTVIFTAGSTAALKLVAEAFPWVSQGPESSGSRFCYLTDSHTSVVGMRNVTMAINVISTPVRPEDLWSAEERSASASNPDCQLPHLFCYPAQSNFSGVRYPLSWIEEVKSGRLHPVSTPGKWFVLLDAASYVSTSPLDLSAHQADFVPISFYKIFGFPTGLGALLVHNRAAPLLRKTYFGGGTASAYLAGEDFYIPRQSVAQRFEDGTISFLDVIALKHGFDTLERLTGGMENIKQHTFTLAQYTYVALSSLQYPNGAPVVRIYSDSEFSSPEVQGPIINFNVLDDKGNIIGYSQVDKMASLYNIHLRTGCFCNTGACQRHLGISNEMVRKHFQAGHVCGDNMDLIDGQPTGSVRISFGYMSTLDDVQAFLRFIIDTRLHSSGDWPVPQAHADTGETGAPSADSQADVIPAVMGRRSLSPQEDALTGSRVWNNSSTVNAVPVAPPVCDVARTQPTPSEKAAGVLEGALGPHVVTNLYLYPIKSCAAFEVTRWPVGNQGLLYDRSWMVVNHNGVCLSQKQEPRLCLIQPFIDLRQRIMVIKAKGMEPIEVPLEENSERTQIRQSRVCADRVSTYDCGEKISSWLSTFFGRPCHLIKQSSNSQRNAKKKHGKDQLPGTMATLSLVNEAQYLLINTSSILELHRQLNTSDENGKEELFSLKDLSLRFRANIIINGKRAFEEEKWDEISIGSLRFQVLGPCHRCQMICIDQQTGQRNQHVFQKLSESRETKVNFGMYLMHASLDLSSPCFLSVGSQVLPVLKENVEGHDLPASEKHQDVTS [MOCOS] | -1.28 | -1.96 | -0.123 | 53.3 | 53.6 | -0.13
MASGEHSPGSGAARRPLHSAQAVDVASASNFRAFELLHLHLDLRAEFGPPGPGAGSRGLSGTAVLDLRCLEPEGAAELRLDSHPCLEVTAAALRRERPGSEEPPAEPVSFYTQPFSHYGQALCVSFPQPCRAAERLQVLLTYRVGEGPGVCWLAPEQTAGKKKPFVYTQGQAVLNRAFFPCFDTPAVKYKYSALIEVPDGFTAVMSASTWEKRGPNKFFFQMCQPIPSYLIALAIGDLVSAEVGPRSRVWAEPCLIDAAKEEYNGVIEEFLATGEKLFGPYVWGRYDLLFMPPSFPFGGMENPCLTFVTPCLLAGDRSLADVIIHEISHSWFGNLVTNANWGEFWLNEGFTMYAQRRISTILFGAAYTCLEAATGRALLRQHMDITGEENPLNKLRVKIEPGVDPDDTYNETPYEKGFCFVSYLAHLVGDQDQFDSFLKAYVHEFKFRSILADDFLDFYLEYFPELKKKRVDIIPGFEFDRWLNTPGWPPYLPDLSPGDSLMKPAEELAQLWAAEELDMKAIEAVAISPWKTYQLVYFLDKILQKSPLPPGNVKKLGDTYPSISNARNAELRLRWGQIVLKNDHQEDFWKVKEFLHNQGKQKYTLPLYHAMMGGSEVAQTLAKETFASTASQLHSNVVNYVQQIVAPKGS [RNPEP] | 1.06 | 1.25 | 0.182 | 50.1 | 50.3 | -0.179
MPMFIVNTNVPRASVPDGFLSELTQQLAQATGKPPQYIAVHVVPDQLMAFGGSSEPCALCSLHSIGKIGGAQNRSYSKLLCGLLAERLRISPDRVYINYYDMNAANVGWNNSTFA [MIF] | -7.37 | -7.71 | 0.405 | 53.5 | 52.5 | -0.0337
MSGAALGLEIVFVFFLALFLLHRYGDFKKQHRLVIIGTLLAWYLCFLIVFILPLDVSTTIYNRCKHAAANSSPPENSNITGLYATANPVPSQHPCFKPWSYIPDGIMPIFWRVVYWTSQFLTWILLPFMQSYARSGGFSITGKIKTALIENAIYYGTYLLIFGAFLIYVAVNPHLHLEWNQLQTIGIAAANTWGLFLLVLLLGYGLVEIPRSYWNGAKRGYLLMKTYFKAAKLMTEKADAEENLEDAMEEVRKVNESIKYNHPLRKCVDTILKKCPTEYQEKMGRNMDDYEDFDEKHSIYPSEKSLVKLHKQVIYSVQRHRRTQVQWQILLEQAFYLEDVAKNETSATHQFVHTFQSPEPENRFIQYFYNPTFEWYWECLLRPWFYKILAVVLSIFSVIVVWSECTFFSTTPVLSLFAVFIQLAEKTYNYIYIEIACFLSIFFLSICVYSTVFRIRVFNYYYLASHHQTDAYSLLFSGMLFCRLTPPLCLNFLGLTHMDSSISHKNTQPTAYTSIMGSMKVLSFIADGFYIYYPMLVVILCIATYFSLGTRCLNLLGFQQFMGDDDMTSDLVNEGKELIRKEKRKRQRQEEGENRRREWKERYGHNREDSTRNRNIHTDPKESNFSDVNTNRSAFKYTRANNRTERDRIELLQDAEPLDFNAETFTDDPLESESGRYQPGGRYLSMSRSDIFNDV [LMBRD2] | -0.0528 | -1.48 | -0.331 | 55.4 | 53.8 | -0.00686
MSAAGLLAPAPAQAGAPPAPEYYPEEDEELESAEDDERSCRGRESDEDTEDASETDLAKHDEEDYVEMKEQMYQDKLASLKRQLQQLQEGTLQEYQKRMKKLDQQYKERIRNAELFLQLETEQVERNYIKEKKAAVKEFEDKKVELKENLIAELEEKKKMIENEKLTMELTGDSMEVKPIMTRKLRRRPNDPVPIPDKRRKPAPAQLNYLLTDEQIMEDLRTLNKLKSPKRPASPSSPEHLPATPAESPAQRFEARIEDGKLYYDKRWYHKSQAIYLESKDNQKLSCVISSVGANEIWVRKTSDSTKMRIYLGQLQRGLFVIRRRSAA [SUDS3] | 0.216 | 0.399 | 0.341 | 49 | 50.6 | 0.238
CHAC2 | 0.759 | 0.354 | 0.541 | 53 | 51.9 | -0.0779
MAEAMDLGKDPNGPTHSSTLFVRDDGSSMSFYVRPSPAKRRLSTLILHGGGTVCRVQEPGAVLLAQPGEALAEASGDFISTQYILDCVERNERLELEAYRLGPASAADTGSEAKPGALAEGAAEPEPQRHAGRIAFTDADDVAILTYVKENARSPSSVTGNALWKAMEKSSLTQHSWQSLKDRYLKHLRGQEHKYLLGDAPVSPSSQKLKRKAEEDPEAADSGEPQNKRTPDLPEEEYVKEEIQENEEAVKKMLVEATREFEEVVVDESPPDFEIHITMCDDDPPTPEEDSETQPDEEEEEEEEKVSQPEVGAAIKIIRQLMEKFNLDLSTVTQAFLKNSGELEATSAFLASGQRADGYPIWSRQDDIDLQKDDEDTREALVKKFGAQNVARRIEFRKK [TERF2IP] | 1.96 | 1.16 | 0.503 | 49.8 | 52.4 | 0.0568
MDLLPPKPKYNPLRNESLSSLEEGASGSTPPEELPSPSASSLGPILPPLPGDDSPTTLCSFFPRMSNLRLANPAGGRPGSKGEPGRAADDGEGIVGAAMPDSGPLPLLQDMNKLSGGGGRRTRVEGGQLGGEEWTRHGSFVNKPTRGWLHPNDKVMGPGVSYLVRYMGCVEVLQSMRALDFNTRTQVTREAISLVCEAVPGAKGATRRRKPCSRPLSSILGRSNLKFAGMPITLTVSTSSLNLMAADCKQIIANHHMQSISFASGGDPDTAEYVAYVAKDPVNQRACHILECPEGLAQDVISTIGQAFELRFKQYLRNPPKLVTPHDRMAGFDGSAWDEEEEEPPDHQYYNDFPGKEPPLGGVVDMRLREGAAPGAARPTAPNAQTPSHLGATLPVGQPVGGDPEVRKQMPPPPPCPGRELFDDPSYVNVQNLDKARQAVGGAGPPNPAINGSAPRDLFDMKPFEDALRVPPPPQSVSMAEQLRGEPWFHGKLSRREAEALLQLNGDFLVRESTTTPGQYVLTGLQSGQPKHLLLVDPEGVVRTKDHRFESVSHLISYHMDNHLPIISAGSELCLQQPVERKL [SHC1] | -1.86 | -2.06 | 0.307 | 52.5 | 52.9 | -0.067
PKN1 | 0.284 | 0.47 | 0.0374 | 49.9 | 50.6 | -0.112
MAAVDLEKLRASGAGKAIGVLTSGGDAQGMNAAVRAVTRMGIYVGAKVFLIYEGYEGLVEGGENIKQANWLSVSNIIQLGGTIIGSARCKAFTTREGRRAAAYNLVQHGITNLCVIGGDGSLTGANIFRSEWGSLLEELVAEGKISETTARTYSHLNIAGLVGSIDNDFCGTDMTIGTDSALHRIMEVIDAITTTAQSHQRTFVLEVMGRHCGYLALVSALASGADWLFIPEAPPEDGWENFMCERLGETRSRGSRLNIIIIAEGAIDRNGKPISSSYVKDLVVQRLGFDTRVTVLGHVQRGGTPSAFDRILSSKMGMEAVMALLEATPDTPACVVTLSGNQSVRLPLMECVQMTKEVQKAMDDKRFDEATQLRGGSFENNWNIYKLLAHQKPPKEKSNFSLAILNVGAPAAGMNAAVRSAVRTGISHGHTVYVVHDGFEGLAKGQVQEVGWHDVAGWLGRGGSMLGTKRTLPKGQLESIVENIRIYGIHALLVVGGFEAYEGVLQLVEARGRYEELCIVMCVIPATISNNVPGTDFSLGSDTAVNAAMESCDRIKQSASGTKRRVFIVETMGGYCGYLATVTGIAVGADAAYVFEDPFNIHDLKVNVEHMTEKMKTDIQRGLVLRNEKCHDYYTTEFLYNLYSSEGKGVFDCRTNVLGHLQQGGAPTPFDRNYGTKLGVKAMLWLSEKLREVYRKGRVFANAPDSACVIGLKKKAVAFSPVTELKKDTDFEHRMPREQWWLSLRLMLKMLAQYRISMAAYVSGELEHVTRRTLSMDKGF [PFKL] | -1.97 | -2.04 | -0.0607 | 58.6 | 58.1 | -0.179
